Laboratory results taken from patent US20250297004A1, “NECTIN-4 BINDING AGENTS” (INNATE PHARMA, priority 2022, published 2025).
“Also recorded” adds a separate entry of the source.

T1: human Nectin-4 Mutant 7 (S195A/K197T/S199A) (Homo sapiens, UniProt Q96NY8, K197T/S195A/S199A)
T1 construct: expressed in transfected cells; host or cells: HEK293T
T1 sequence (Q96NY8 32-510 S195A/K197T/S199A): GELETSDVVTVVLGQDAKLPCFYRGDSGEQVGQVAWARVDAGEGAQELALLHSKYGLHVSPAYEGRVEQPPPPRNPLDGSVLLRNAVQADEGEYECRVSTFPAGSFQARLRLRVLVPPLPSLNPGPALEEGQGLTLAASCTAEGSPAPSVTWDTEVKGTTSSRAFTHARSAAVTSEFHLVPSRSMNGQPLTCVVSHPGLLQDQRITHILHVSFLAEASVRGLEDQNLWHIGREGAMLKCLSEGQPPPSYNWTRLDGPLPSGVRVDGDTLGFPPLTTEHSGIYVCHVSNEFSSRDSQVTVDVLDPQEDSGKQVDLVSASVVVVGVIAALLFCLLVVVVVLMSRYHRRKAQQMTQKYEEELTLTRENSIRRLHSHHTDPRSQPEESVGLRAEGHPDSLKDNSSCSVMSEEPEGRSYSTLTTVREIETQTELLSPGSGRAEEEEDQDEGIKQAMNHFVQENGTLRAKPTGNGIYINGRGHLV

T2: human Nectin-4 Mutant 1 (S58P/G59D/Q61A/N106D/P107A) (Homo sapiens, UniProt Q96NY8, G59D/N106D/P107A/Q61A/S58P)
T2 construct: expressed in transfected cells; host or cells: HEK293T
T2 sequence (Q96NY8 32-510 S58P/G59D/Q61A/N106D/P107A): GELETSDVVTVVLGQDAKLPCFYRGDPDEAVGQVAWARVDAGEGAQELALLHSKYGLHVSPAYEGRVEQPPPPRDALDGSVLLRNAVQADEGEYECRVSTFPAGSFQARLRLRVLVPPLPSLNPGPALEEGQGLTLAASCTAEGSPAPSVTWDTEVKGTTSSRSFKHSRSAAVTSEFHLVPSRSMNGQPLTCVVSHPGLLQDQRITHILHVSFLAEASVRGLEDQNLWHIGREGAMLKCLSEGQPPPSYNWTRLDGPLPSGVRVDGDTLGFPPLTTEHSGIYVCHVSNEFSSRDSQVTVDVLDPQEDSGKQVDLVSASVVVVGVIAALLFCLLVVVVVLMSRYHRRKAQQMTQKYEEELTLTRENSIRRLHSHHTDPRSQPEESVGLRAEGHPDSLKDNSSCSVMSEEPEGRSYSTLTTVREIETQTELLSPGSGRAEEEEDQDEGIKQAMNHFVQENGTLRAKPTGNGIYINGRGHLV


Key:
[1] = tested on: SUM190 cells subcutaneously engrafted in CB17-SCID mice; experiment: In vivo efficacy of ggfg-Dxd ADCs, Nectin-4 low/SUM190 mouse model of human breast cancer; conditions: single i.v. injection 3 mg/kg, each antibody conjugated to ggfg-Dxd, DAR=8, FIG. 4
Protocol: SUM190 cells were subcutaneously engrafted in CB17-SCID immunodeficient mice at a dose of 0.5 million cells in 100 μl of Matrigel with growth factor diluted at ½ in PBS. When tumors reached a volume between 195 and 250 mm3, mice were randomized into groups of 9 mice for intravenous treatment with a single injection of 3 mg/kg of camptothecin ADCs. Tumor growths were followed twice a week. Kaplan Meier survival curves were established by using GraphPad Prism V7 software according to the following criteria: When the tumor volume reached 1500 mm3, mice were euthanized and considered dead on the day of sacrifice (D).

[2] = tested on: human Nectin-4 Mutant 5 (A158P/E160G/S243A/F244S); experiment: Epitope mapping using Nectin-4 point mutants; assay type: binding; conditions: results irrelevant due to an absence of expression of said protein
Text: (§1) Combined with the published structures of the Nectin-4 domains, Nectin-4 mutations at surface exposed amino acids residues were designed. Nectin-4 domain structure was modelled based on Protein Data Bank reference: 4FRW (domains V et C1). Human Nectin-4 used was NCBI Reference Sequence: NP_112178.2, mouse Nectin-4 used was NCBI Reference Sequence: AAL79833.1, cynomolgus Nectin-4 used was NCBI Reference Sequence: XP_005541277.1, rat Nectin-4 used was NCBI Reference Sequence: NP_001102546.1. The cells expressing the Nectin-4 mutants are then be used for testing anti-Nectin-4 antibodies for loss of binding to different Nectin-4 mutants to identify antibodies that bind to the same site on Nectin-4. […] FIGS. 8A and 8B show different view of a molecular model of the human Nectin-4 protein, indicating the position of substituted residues in mutants 1, 2, 3, 4, 5, 6, 7, 8 and 9.
(§2) Nectin-4 mutants were generated by PCR. The sequences amplified were run on agarose gel and purified using the Macherey Nagel PCR Clean-Up Gel Extraction kit. The purified PCR products generated for each mutant were then ligated into an expression vector, with the ClonTech InFusion system. The vectors containing the mutated sequences were prepared as Miniprep and sequenced. After sequencing, the vectors containing the mutated sequences were prepared as Midiprep using the Promega PureYield™ Plasmid Midiprep System. HEK293T cells were grown in DMEM medium (Invitrogen), transfected with vectors using Invitrogen's Lipofectamine 2000 and incubated at 37° C. in a CO2 incubator for 48 hours prior to testing for transgene expression. The targeted amino acid mutations are shown in Table 13 below, listing the residue present in wild-type Nectin-4/position of residue/residue present in mutant Nectin-4, with position reference being to the Nectin-4 protein with leader peptide shown in SEQ ID NO: 1.
(§3) (+) means that antibodies-Nectin-4 association occurs.

[3] = molecular target: T1, human Nectin-4 Mutant 7 (S195A/K197T/S199A); experiment: Epitope mapping using Nectin-4 point mutants; assay type: binding
Text: as §1, §2, §3

[4] = molecular target: T2, human Nectin-4 Mutant 1 (S58P/G59D/Q61A/N106D/P107A); experiment: Epitope mapping using Nectin-4 point mutants; assay type: binding
Text: as §1, §2, §3

Molecule	control of tumor growth ([1]; 3 mg/kg)	association with Mutant 5 [2]	association with Mutant 7 [3]	association with Mutant 1 [4]	control of tumor growth [1]
5E7 (antibody, V domains shown) VH: QVQLQQPGAELVKPGASVKLSCKASGYIFTSYWMHWVKQRPGQGLEWIGEIDPSDSYTNYNQKFKGKATLTLDKSSSTTYMQLSSLTSEDSAVYYCVRGYGNYGDYWGQGTTLTVSSASTKGP VL: DVVMTQAAFSNPVTLGTSASISCRSSKSLLHSNGITYLYWYLQKPGQSPQLLIYQMSNLASGVPDRFSSSGSGTDFTLRISRVEAEDVGVYYCAQNLELPWTFGGGTKLEIKRTVAAP	strong ability to prevent tumor growth; also recorded: able to effectively control tumor growth	−	−	+	
N41 (antibody, V domains shown) VH: QVQLKQSGPGLVQPSQSLSITCTVSGFSLTNYGVHWVRQSPGKGLEWLGVIWSGGSTDYNAAFISRLSISKDTSKSQVFFKMNSLQADDTAIYYCARELIHAMDNWGQGTSVTVSS VL: DIQMTQSPASLSVSVGETVTITCRASENIYSNLAWYQQKQGNSPQLLVFAATNLADGVPSRFSGSGSGTQYSLKINSLQSEDFGTYYCQHFWGTPTFGGGTKLEIK		−	+	−	no longer showed the ability to control tumor growth
